Biological target: T1, COP1-His recombinant protein (Arabidopsis thaliana, UniProt P43254 1-675)
T1 sequence (looked up): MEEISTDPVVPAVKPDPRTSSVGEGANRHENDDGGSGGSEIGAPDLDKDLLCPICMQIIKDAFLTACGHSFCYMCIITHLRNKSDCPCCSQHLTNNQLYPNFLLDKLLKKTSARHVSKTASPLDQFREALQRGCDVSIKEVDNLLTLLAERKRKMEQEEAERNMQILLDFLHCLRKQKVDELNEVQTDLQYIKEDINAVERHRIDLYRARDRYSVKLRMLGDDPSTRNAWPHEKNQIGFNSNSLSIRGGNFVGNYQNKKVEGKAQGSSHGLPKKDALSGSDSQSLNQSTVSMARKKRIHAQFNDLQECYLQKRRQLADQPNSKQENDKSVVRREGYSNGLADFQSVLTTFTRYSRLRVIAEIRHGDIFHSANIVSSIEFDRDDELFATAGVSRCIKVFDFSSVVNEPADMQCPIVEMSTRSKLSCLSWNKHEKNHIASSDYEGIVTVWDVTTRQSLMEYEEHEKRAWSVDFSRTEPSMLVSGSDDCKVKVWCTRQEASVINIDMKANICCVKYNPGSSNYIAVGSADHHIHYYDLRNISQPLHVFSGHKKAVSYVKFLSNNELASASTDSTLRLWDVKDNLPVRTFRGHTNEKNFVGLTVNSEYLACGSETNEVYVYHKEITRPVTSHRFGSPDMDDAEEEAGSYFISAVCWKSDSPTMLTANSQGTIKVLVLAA
Assay: pull-down

binding result: binds
B1: GST-HDA15 recombinant protein (enzyme, Arabidopsis thaliana, UniProt Q8GXJ1 1-552, looked up)
chain: MVVETIERSCEGSKRRHVNGGDIAVPCSGEECSNGDINVAPGVSAKRARVSREMTFEDIYGADALLNDDDDEDDDCDWEPVQAPMEFVKWCCVNCTMSNPGDMVHCCICGEHKESGILRHGYLASPFFKDTGLIEVEEKYGGSSSATSSTAVGFDERMLLHSEFEVKAQPHPERPDRLRAIAASLATAGVFPGRCLPINAREITKQELQMVHTSEHVDAVDTTSQLLYSYFTSDTYANEYSARAARLAAGLCADLATDIFTGRVKNGFALVRPPGHHAGVRHAMGFCLHNNAAVAALVAQAAGAKKVLIVDWDVHHGNGTQEIFEQNKSVLYISLHRHEGGNFYPGTGAADEVGSNGGEGYCVNVPWSCGGVGDKDYIFAFQHVVLPIASAFSPDFVIISAGFDAARGDPLGCCDVTPAGYSRMTQMLGDLCGGKMLVILEGGYNLRSISASATAVIKVLLGENPENELPIATTPSVAGLQTVLDVLNIQLEFWPSLAISYSKLLSELEARLIENKKNQMKRKVVRVPTWWKWGRKKLLYNFLSARMISRSK

From paper doi:10.1101/2020.08.07.241737 (bioRxiv, 2020)
